This is an account of results in patent publication US20220106405A1 (YEDA RESEARCH AND DEVELOPMENT, published 2022).

One test has as its target T1, MMP-7 zymogen / pro form (UniProt P09237 18-267, limits assumed).
T1 construct: domain: zymogen/pro form; Recombinant zymogen on the dot blot and in ELISA; also called MMP-7 pro form; zymogen form of the enzyme
T1 sequence (looked up): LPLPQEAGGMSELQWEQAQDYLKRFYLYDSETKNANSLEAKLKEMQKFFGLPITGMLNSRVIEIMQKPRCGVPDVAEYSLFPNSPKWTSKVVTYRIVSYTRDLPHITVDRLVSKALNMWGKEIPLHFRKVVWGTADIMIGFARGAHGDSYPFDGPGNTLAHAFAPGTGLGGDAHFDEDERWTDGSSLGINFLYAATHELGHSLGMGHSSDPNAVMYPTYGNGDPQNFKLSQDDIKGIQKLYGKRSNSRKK
The test is described as follows: dot blot. How it is done: A dot blot was performed by immobilizing 1, 1.5 and 2 μg zymogen and activated MMP-7 recombinant enzyme on nitrocellulose membrane pre wetted with TBST using a vacuum based manifold 96 well dot-blot system (GE 10447900 Minifold dot blot). The blocking was performed for 1 hour at room temperature with 3% BSA in TBST. The membrane was then probed for binding by antibody eluted in the earlier step by incubating overnight. The anti MMP-7 mAb used was at 2 ug/ml concentration in TBST. The membrane after 3 washes in TBST was incubated with goat anti mouse HRP antibody and developed using ECL to determine the selectivity of binding towards catalytic form only.
Only antibodies that were capable of binding to the activated form of MMP-7 and not the zymogen were selected for further development (i.e. selected for fusion and developed to generate monoclonal antibodies). This was carried out by dot blot analysis using a nitrocellulose membrane coated with varying concentrations of active MMP-7 and its zymogen respectively.

Test [1] concerns the target T2, recombinant human MMP-7 activated form (catalytic domain) (human, UniProt P09237 95-267).
T2 construct: domain: catalytic domain; Contains the catalytic zinc; also called MMP-7 active enzyme
T2 sequence (looked up): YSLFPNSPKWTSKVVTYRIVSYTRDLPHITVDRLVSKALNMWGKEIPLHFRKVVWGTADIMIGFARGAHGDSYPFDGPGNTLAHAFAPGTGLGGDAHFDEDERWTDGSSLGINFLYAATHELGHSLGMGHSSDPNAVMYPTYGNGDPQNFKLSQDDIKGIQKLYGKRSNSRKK
Briefly: ELISA on MMP-coated plate, four-parametric sigmoidal fit. The protocol: (§1) MMP-7 Elisa binding assay: A 96-well plate (Nunc) was coated with MMP at 5 mg/ml. […] The bound Fab fragment/full length was detected using a goat anti-Fab/anti-mouse antibody followed by peroxidase-conjugated bovine anti-goat antibody according to standard procedures. A four-parametric sigmoidal curve-fitting analysis was used to calculate the half-maximal effective concentration.
(§2) The lack of binding to a panel of other MMPs helped measure the novel antibody's affinity to epitopes specifically unique to MMP-7.
(In general: In an ELISA, binding on a coated surface is turned into a signal by an enzyme label.)

The next test concerns the target MMP-14 (UniProt P50281 112-538, limits assumed). The test is described as follows: ELISA, MMP-coated plate. The protocol:
as §1, §2

The target in another test is MMP-12 (UniProt P39900 106-263, limits assumed). The test is described as follows: ELISA, MMP-coated plate. How it is done:
as §1, §2

A further test concerns the target MMP-13 (UniProt P45452 104-471, limits assumed). Briefly: ELISA, MMP-coated plate. How it is done:
as §1, §2

A further test has as its target MMP-9 (UniProt P14780 107-707, limits assumed). Briefly: ELISA, MMP-coated plate. The protocol:
as §1, §2

Test [2] has as its target T2, recombinant human MMP-7 activated form …. The test is described as follows: enzyme inhibition, fluorogenic peptide Mca-Pro-Leu-Gly-Leu-Dpa-Ala-Arg-NH2, 10 nM MMP-7, 37 C. How it is done:
The enzymatic reaction was initiated by addition of the fluorogenic peptide to a final concentration of 10 μM. Fluorescence was recorded immediately and continuously for 30 min.
Remarkably, considering that the immunization booster also included the common zinc motif, the antibody is fully selective for MMP-7. […] Simultaneously the effect of the antibody on catalytic activity of related MMPs was measured. The catalytic activities in vitro of MMP-9, -14 and -12 were either not affected or in the case of MMP-14 only negligibly affected by the anti MMP-7 Fab treatment (FIG. 2D).

Chain of MMP-9 (P14780 107-707 limits assumed): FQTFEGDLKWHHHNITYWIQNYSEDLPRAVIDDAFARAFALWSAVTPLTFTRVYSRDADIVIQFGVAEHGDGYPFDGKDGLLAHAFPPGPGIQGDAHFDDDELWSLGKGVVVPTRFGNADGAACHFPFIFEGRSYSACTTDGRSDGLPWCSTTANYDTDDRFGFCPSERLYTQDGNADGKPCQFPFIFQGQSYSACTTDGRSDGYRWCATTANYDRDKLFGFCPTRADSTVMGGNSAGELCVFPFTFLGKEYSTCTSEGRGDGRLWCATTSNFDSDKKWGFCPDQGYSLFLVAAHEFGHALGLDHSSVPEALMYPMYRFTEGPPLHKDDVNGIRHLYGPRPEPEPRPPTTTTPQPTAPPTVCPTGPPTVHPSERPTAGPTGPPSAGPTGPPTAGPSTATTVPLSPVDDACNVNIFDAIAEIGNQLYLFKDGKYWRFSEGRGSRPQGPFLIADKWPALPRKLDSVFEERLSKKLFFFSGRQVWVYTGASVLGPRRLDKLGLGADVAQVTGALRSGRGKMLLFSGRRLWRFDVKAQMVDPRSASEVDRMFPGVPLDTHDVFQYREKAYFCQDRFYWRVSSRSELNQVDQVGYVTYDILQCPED
Chain of MMP-12 (P39900 106-263 limits assumed): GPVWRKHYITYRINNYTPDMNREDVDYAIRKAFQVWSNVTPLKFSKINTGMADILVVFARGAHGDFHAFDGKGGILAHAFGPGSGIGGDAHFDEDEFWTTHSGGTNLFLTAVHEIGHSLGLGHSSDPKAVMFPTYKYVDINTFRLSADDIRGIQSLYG

B1: GSM-192 monoclonal antibody (antibody, V domains shown)
VH: EVQLQQSGPELVKPGASVKIPCKASGYTFTDYNMDWMKQSHGKSLEWIGHINPNNGGTFYNQKFKDKATFIVDKSSNTAYMELRSLTSEDTAVYFCARGGGLRRGPFAYWGQGTLVTVS
VL: DIVTQSPASLAVSLGQRATISCRASESFDSYGNTFVHWYQQKPGQPPKLLIYLVSNLESGVPAGFRGRGSRTDFTLTIDPVEADDAATYYCQQNNEDPYTFGGGTKLEIKR
notes: also called anti MMP-7 mAb; anti MMP-7 Ab
A word on the Kd: it is a measure of binding affinity in units of concentration. With B1, the binding result with MMP-7 zymogen / pro form, with MMP-14, with MMP-12, with MMP-13 and with MMP-9 was “no binding” throughout. The Kd in test [1] was 43.1 nM.

B2: GSM-192 Fab fragment (Fab, V domains shown)
VH: EVQLQQSGPELVKPGASVKIPCKASGYTFTDYNMDWMKQSHGKSLEWIGHINPNNGGTFYNQKFKDKATFIVDKSSNTAYMELRSLTSEDTAVYFCARGGGLRRGPFAYWGQGTLVTVS
VL: DIVTQSPASLAVSLGQRATISCRASESFDSYGNTFVHWYQQKPGQPPKLLIYLVSNLESGVPAGFRGRGSRTDFTLTIDPVEADDAATYYCQQNNEDPYTFGGGTKLEIKR
notes: also called anti MMP-7 Fab
What is called Ki is the dissociation constant of the complex between target and ligand, obtained from inhibition or displacement. For B2, the Ki in test [2] came out at 132 nM.
